In paper PMC4320653:

B1: human TRBP (isoform TRBP2, 366 residues), full-length, residues 1-366 (natural protein)
chain: MSEEEQGSGTTTGCGLPSIEQMLAANPGKTPISLLQEYGTRIGKTPVYDLLKAEGQAHQPNFTFRVTVGDTSCTGQGPSKKAAKHKAAEVALKHLKGGSMLEPALEDSSSFSPLDSSLPEDIPVFTAAAAATPVPSVVLTRSPPMELQPPVSPQQSECNPVGALQELVVQKGWRLPEYTVTQESGPAHRKEFTMTCRVERFIEIGSGTSKKLAKRNAAAKMLLRVHTVPLDARDGNEVEPDDDHFSIGVGSRLDGLRNRGPGCTWDSLRNSVGEKILSLRSCSLGSLGALGPACCRVLSELSEEQAFHVSYLDIEELSLSGLCQCLVELSTQPATVCHGSATTREAARGEAARRALQYLKIMAGSK
B2: TRBP3: third dsRBD of human TRBP with its N-terminal extension, residues 258-366 (domain or fragment)
chain: NRGPGCTWDSLRNSVGEKILSLRSCSLGSLGALGPACCRVLSELSEEQAFHVSYLDIEELSLSGLCQCLVELSTQPATVCHGSATTREAARGEAARRALQYLKIMAGSK

Assays:
TRBP (Homo sapiens) = TRBP (Homo sapiens) (UniProt Q15633); settings: cited from earlier work
[1] = molecular target: human Dicer, wild type, full-length (human) (UniProt Q9UPY3); test: ITC

Molecule	Kd (TRBP (Homo sapiens)) [nM]	Kd [1] [nM]	dH [1] [kcal/mol]	stoichiometry N [1]
TRBP (from UniProt Q15633)	54000			
B1		2.8	-15.9	0.84
B2		4.3	-23.2	1.35
